# Results: patent US20200062856A1 (XDCEXPLORER SHANGHAI, published 2020)
# Residue numbers refer to the chain shown, from its start.
# T1: human TPBG-hFc protein (human, UniProt Q13641 32-355)
# T1 construct: range 32-355; Expressed in HEK293 cells, purified on protein A; also called immunogen A; hFc tagged TPBG protein; not shown: human IgG Fc fragment of the pCpC vector
# T1 sequence (looked up): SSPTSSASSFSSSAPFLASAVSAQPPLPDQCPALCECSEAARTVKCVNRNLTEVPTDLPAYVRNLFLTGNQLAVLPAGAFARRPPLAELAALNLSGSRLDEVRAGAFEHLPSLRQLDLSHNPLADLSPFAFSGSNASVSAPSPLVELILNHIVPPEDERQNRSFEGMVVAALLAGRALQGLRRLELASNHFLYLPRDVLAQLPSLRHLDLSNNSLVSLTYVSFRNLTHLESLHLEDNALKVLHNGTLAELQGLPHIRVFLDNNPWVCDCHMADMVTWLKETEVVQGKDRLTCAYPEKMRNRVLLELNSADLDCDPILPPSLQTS
# T2: human TPBG antigen immobilized on a CM5 chip (human, UniProt Q13641 32-355, limits assumed)
# T2 sequence (looked up): T1 sequence (looked up)
# T3: human TPBG protein, full-length, on the cell surface (human, UniProt Q13641 32-420)
# T3 sequence (looked up): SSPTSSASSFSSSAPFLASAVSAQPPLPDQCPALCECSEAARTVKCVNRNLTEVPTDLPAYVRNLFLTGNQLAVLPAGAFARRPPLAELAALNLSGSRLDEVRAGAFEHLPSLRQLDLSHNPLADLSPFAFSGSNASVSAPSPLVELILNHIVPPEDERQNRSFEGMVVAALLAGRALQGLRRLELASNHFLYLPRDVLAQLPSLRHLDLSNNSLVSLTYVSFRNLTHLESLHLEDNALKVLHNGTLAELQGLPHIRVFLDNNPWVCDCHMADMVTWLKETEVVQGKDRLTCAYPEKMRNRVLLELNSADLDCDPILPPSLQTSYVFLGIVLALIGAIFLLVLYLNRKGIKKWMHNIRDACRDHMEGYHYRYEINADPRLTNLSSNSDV
# B1: Humanized antibody 12B12-14 (antibody, V domains shown)
# VH: EVQLVESGGGLVQPGGSLRLSCAASGFTFSNFGMHWVRQAPGKGLEWVAYISSGSTSFYYADTVKGRFTISRDNAKNSLYLQMNSLRDEDTAVYYCSRTNSLLRGFFDAWGQGTTVTVSS
# VL: DIVLTQTPLSLSVTPGQPASISCRASQSVSSSSYTYLHWYLQKPGQPPQLLIKSASNLESGVPDRFSGSGSGTDFTLKISRVEAEDVGVYYCQHSWEIPLTFGQGTKLEIK
# notes: also called h12B12-14
# B2: Humanized antibody 12B12-4 (antibody, V domains shown)
# VH: B1 VH with A49S, S97A
# VL: DIVLTQSPDSLAVSLGERATINCRASQSVSSSSYTYLHWYQQKPGQPPKLLIKSASNLESGVPDRFSGSGSGTDFTLTISSLQAEDVAVYYCQHSWEIPLTFGQGTKLEIK
# notes: also called h12B12-4
# B3: Humanized antibody 12B12-6 (antibody, V domains shown)
# VH: B1 VH
# VL: B2 VL
# notes: also called h12B12-6
# B4: Humanized antibody 12B12-13 (antibody, V domains shown)
# VH: B1 VH with A49S
# VL: B1 VL
# notes: also called h12B12-13
# B5: Humanized antibody 12B12-1 (antibody, V domains shown)
# VH: B1 VH with A49S
# VL: B2 VL with L4M, K53Y
# notes: also called h12B12-1
# B6: Humanized antibody 12B12-11 (antibody, V domains shown)
# VH: B1 VH with L11V, G16R, A75S, S78T, D88A
# VL: B1 VL with L4M, K53Y
# notes: also called h12B12-11
# B7: Humanized antibody 12B12-3 (antibody, V domains shown)
# VH: B1 VH with L11V, G16R, A75S, S78T, D88A
# VL: B2 VL with L4M, K53Y
# notes: also called h12B12-3
# B8: Humanized antibody 12B12-9 (antibody, V domains shown)
# VH: B1 VH with A49S
# VL: B1 VL with L4M, K53Y
# notes: also called h12B12-9
# B9: Humanized antibody 12B12-16 (antibody, V domains shown)
# VH: B1 VH with L11V, G16R, A75S, S78T, D88A
# VL: B1 VL
# notes: also called h12B12-16
# B10: Humanized antibody 12B12-7 (antibody, V domains shown)
# VH: B1 VH with L11V, G16R, A75S, S78T, D88A, S97A
# VL: B2 VL
# notes: also called h12B12-7
# B11: Humanized antibody 12B12-2 (antibody, V domains shown)
# VH: B1 VH
# VL: B2 VL with L4M, K53Y
# notes: also called h12B12-2
# B12: Humanized antibody 12B12-10 (antibody, V domains shown)
# VH: B1 VH
# VL: B1 VL with L4M, K53Y
# notes: also called h12B12-10
# B13: Humanized antibody 12B12-8 (antibody, V domains shown)
# VH: B1 VH with L11V, G16R, A75S, S78T, D88A
# VL: B2 VL
# notes: also called h12B12-8
# B14: Humanized antibody 12B12-5 (antibody, V domains shown)
# VH: B1 VH with A49S
# VL: B2 VL
# notes: also called h12B12-5
# B15: Humanized antibody 28D4-8 (antibody, V domains shown)
# VH: EVQLVESGGGLVKPGGSLRLSCAASGFTFSNYVMSWARQAPGKRLEWVAEISTGGSHTYYSDTVTGRFTISRDNAKKSLYLQMNSLRAEDTAVYYCIMFYYGSSYSMDYWGQGTTVTVSS
# VL: DIQMTQSPSSLSASVGDRVTITCRASQDIRNYLNWYQQKPGKAPKLLIYHTSRLHSGVPSRFSGSGSGTDYTFTISSLQPEDIATYYCQQGDTLPLTFGQGTRLEIK
# notes: also called h28D4-8
# B16: Humanized antibody 28D4-6 (antibody, V domains shown)
# VH: B15 VH with A37I, R44G, A49S, K77N
# VL: B15 VL
# notes: also called h28D4-6
# B17: Humanized antibody 28D4-5 (antibody, V domains shown)
# VH: B15 VH with A37I, R44G, A49S, K77N, I97A, M98R
# VL: B15 VL
# notes: also called h28D4-5
# B18: Humanized antibody 28D4-9 (antibody, V domains shown)
# VH: B15 VH with A37I, R44G, A49S, K77N, I97A, M98R
# VL: B15 VL with A43T, P44V, Y87F
# notes: also called h28D4-9
# B19: Humanized antibody 28D4-10 (antibody, V domains shown)
# VH: B15 VH with A37I, R44G, A49S, K77N
# VL: B15 VL with A43T, P44V, Y87F
# notes: also called h28D4-10
# B20: Humanized antibody 28D4-2 (antibody, V domains shown)
# VH: B15 VH with A37I, R44G, A49S, K77N
# VL: B15 VL with Y71F
# notes: also called h28D4-2
# B21: Humanized antibody 28D4-1 (antibody, V domains shown)
# VH: B15 VH with A37I, R44G, A49S, K77N, I97A, M98R
# VL: B15 VL with Y71F
# notes: also called h28D4-1
# B22: Humanized antibody 28D4-11 (antibody, V domains shown)
# VH: B15 VH with A37I, R44G
# VL: B15 VL with A43T, P44V, Y87F
# notes: also called h28D4-11
# B23: Humanized antibody 28D4-12 (antibody, V domains shown)
# VH: B15 VH
# VL: B15 VL with A43T, P44V, Y87F
# notes: also called h28D4-12
# B24: Humanized Antibody 12B12-12-MMAE (antibody, V domains shown)
# VH: B1 VH with A49S, S97A
# VL: B1 VL
# modifications: MC-VC-PAB-MMAE on cysteines reduced with TCEP (sites not given), DAR about 3.0-5.0 per antibody
# Biological target: T1, human TPBG-hFc protein
# Assay: ELISA, coated human TPBG-hFc
# Procedure: The purified human TPBG-hFc obtained from step (1) diluting with PBS to a final concentration of 1.0 μg/mL was aliquoted into a 96-well ELISA plate at 100 μL per well, and sealed with a parafilm and incubated at 4° C. overnight. The plate was washed twice with plate washing buffer (PBS containing 0.01% (v/v) Tween 20), and blocked with blocking buffer (PBS containing 0.01% (v/v) Tween 20 and 1% (w/w) BSA) at room temperature for 2 h. The blocking buffer was discarded, and […] per well of the purified antibody TPBG was added. After incubating at 37° C. for 2 h, the plate was washed for three times with plate washing buffer (PBS containing 0.01% (v/v) Tween 20). HRP (horseradish peroxidase)-labeled secondary antibody (purchased from Sigma) was added and incubated at 37° C. for 2 h, and the plate was washed for three times using plate washing buffer (PBS containing 0.01% (v/v) Tween 20). 100 μL of TMB substrate was aliquoted into each well, incubated at room temperature for 30 min, and 100 μL of stop buffer (1.0 N HCl) per well was subsequently added. A_{450 nm} values were read using the ELISA plate reader (SpectraMax 384plus purchased from Molecular Device), and the results were shown in Table 5. […] In Table 5 the IgG control herein is a mice IgG control, the data in the Table are OD_{450 nm} values, and Blank represents the OD_{450 nm} value of PBS buffer in the plate.
# The purified humanized TPBG antibody obtained from Embodiment 1 was reacted with human TPBG-hFc, for the method, see (5) Identification of lead antibody in Embodiment 1. The EC50 in Table 11 and Table 12 are calculated according to the OD450 nm value of the h12B12 variants and the h28D4 variants, respectively. […] FIGS. 7A and 7B are the binding reactions of purified humanized h12B12 variants to human TBPG-hFc protein, and FIGS. 8A and 8B are the binding reactions of the purified humanized h28D4 variants to human TBPG-hFc protein.
row,EC50,Binder
1,0.257 nM,B1
2,0.227 nM,B2
3,0.362 nM,B3
4,0.289 nM,B4
5,0.248 nM,B5
6,0.239 nM,B6
7,0.333 nM,B7
8,0.223 nM,B8
9,0.2 nM,B9
10,0.367 nM,B10
11,0.274 nM,B11
12,0.25 nM,B12
13,0.287 nM,B13
14,0.253 nM,B14
15,0.162 nM,B15
16,0.205 nM,B16
17,0.782 nM,B17
18,0.218 nM,B18
19,0.224 nM,B19
20,0.181 nM,B20
21,0.364 nM,B21
22,0.191 nM,B22
23,0.167 nM,B23

# Biological target: T2, human TPBG antigen immobilized on a CM5 …
# Assay: SPR (Biacore), human TPBG antigen immobilized on CM5 chip
# Procedure: To assess the binding specificity and affinity of the humanized anti-TPBG antibody, Biacore analysis was performed using human TPBG antigen immobilized on a CM5 chip. Biacore technique utilizes the change in the refractive index of surface layer after antibody binding to the TPBG antigen immobilized on the surface layer. The binding was determined by surface plasmon resonance (SPR) through detecting the laser refracted from the surface. Non-specific and specific interactions were distinguished by analysis of signal kinetics binding rate and dissociation rate. Chimeric antibodies 12B12 and 28D4 were used as controls.
Kd,koff,kon,Binder
0.022 nM,3.46e-05 s⁻¹,1.58e+06 M⁻¹ s⁻¹,B2
0.0229 nM,3.65e-05 s⁻¹,1.59e+06 M⁻¹ s⁻¹,B9
0.0179 nM,2.1e-05 s⁻¹,1.17e+06 M⁻¹ s⁻¹,B14
0.0296 nM,3.01e-05 s⁻¹,1.02e+06 M⁻¹ s⁻¹,B15
0.0381 nM,3.94e-05 s⁻¹,1.03e+06 M⁻¹ s⁻¹,B23

# Biological target: T3, human TPBG protein, full-length, on the …
# Assay: cell-based or functional assay
Binder,"IC50 of cell killing, MDA-MB-468 cells (CellTiter-Glo, 5 days)","IC50 of cell killing, NCI-H1568 cells (CellTiter-Glo, 5 days)","IC50 of cell killing, NCI-H1975 cells (CellTiter-Glo, 5 days)"
B24,0.27 nM,0.43 nM,1.2 nM
